Experimental data: US20200247894A1 (Regeneron, published 2020)
One block for each binder: values may come before it.

Experiments:
[1] = target: T1, human IL-2Rγ endogenously expressed on NK-92 and Jurkat cells (human, UniProt P31785 23-369); test: flow cytometry, 10 ug/ml antibody, NK-92 cells (endogenous human IL-2Rg)
T1 construct: whole, on cells; on cells it stands with the other receptor subunits of the cell line; also called IL-2Rg; CD132
T1 sequence (looked up): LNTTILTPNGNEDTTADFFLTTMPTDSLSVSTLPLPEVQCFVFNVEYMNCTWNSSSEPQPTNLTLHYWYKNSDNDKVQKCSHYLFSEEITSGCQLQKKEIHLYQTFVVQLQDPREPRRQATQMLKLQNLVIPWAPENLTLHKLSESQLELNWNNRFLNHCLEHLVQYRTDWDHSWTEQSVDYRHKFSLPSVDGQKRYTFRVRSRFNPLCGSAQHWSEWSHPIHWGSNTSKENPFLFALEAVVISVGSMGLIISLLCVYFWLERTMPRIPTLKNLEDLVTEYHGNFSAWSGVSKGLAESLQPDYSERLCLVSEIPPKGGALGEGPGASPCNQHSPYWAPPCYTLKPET
Method: (§1) For flow cytometry analyses, the cells were pre-incubated with mouse IgG at 100 μg/ml for 15 minutes at room temperature (RT) to block the binding of the antibodies to Fc receptors. […] Cells were washed, fixed using BD CytoFix™ (BD biosciences, #554655) and analyzed on an IQue® (Intellicyt®) Flow Cytometer or Accuri Flow cytometer (BD). […] The results were analyzed using ForeCyt® (IntelliCyt®) software to determine the geometric means of fluorescence (MFI) for viable cells. Binding ratios were calculated by normalizing the MFI of the test sample by the MFI of the unstained sample.

[2] = target: T2, mouse IL-2Rγ endogenously expressed on MC/9 cells (mouse, UniProt P34902 23-369); test: flow cytometry, 10 ug/ml antibody, MC/9 cells (endogenous mouse IL-2Rg)
T2 construct: whole, on cells
T2 sequence (looked up): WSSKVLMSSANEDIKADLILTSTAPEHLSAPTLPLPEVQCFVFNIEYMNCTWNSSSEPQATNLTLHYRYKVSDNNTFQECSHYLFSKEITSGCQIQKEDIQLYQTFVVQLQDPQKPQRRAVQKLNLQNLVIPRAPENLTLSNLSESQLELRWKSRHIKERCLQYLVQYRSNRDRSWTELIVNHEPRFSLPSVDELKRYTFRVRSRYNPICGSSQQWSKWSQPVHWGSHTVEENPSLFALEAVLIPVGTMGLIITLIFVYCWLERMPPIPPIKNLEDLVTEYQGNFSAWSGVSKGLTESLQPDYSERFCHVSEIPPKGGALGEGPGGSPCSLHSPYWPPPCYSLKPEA
Method: as §1

[3] = target: T1, human IL-2Rγ endogenously expressed on …; test: flow cytometry, 10 ug/ml antibody, Jurkat cells (endogenous human IL-2Rg)
Method: as §1

[4] = target: T3, Mouse IL2Rγ extracellular domain expressed with a C-terminal myc-myc-hexahistidine tag (mouse); test: SPR Biacore 4000, anti-hFc-captured mAb, 37 C
T3 construct: whole entry is the tagged construct; also called mIL-2Rg-MMH
T3 chain: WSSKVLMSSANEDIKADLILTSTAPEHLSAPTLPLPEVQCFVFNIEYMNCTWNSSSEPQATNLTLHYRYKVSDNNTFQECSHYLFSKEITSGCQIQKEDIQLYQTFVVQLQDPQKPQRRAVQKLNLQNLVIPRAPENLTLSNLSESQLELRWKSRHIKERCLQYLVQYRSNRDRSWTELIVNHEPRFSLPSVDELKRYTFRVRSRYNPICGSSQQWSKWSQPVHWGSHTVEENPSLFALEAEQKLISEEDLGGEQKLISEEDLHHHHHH
Method: (§2) Equilibrium dissociation constants (KD values) for IL-2Rγ binding to purified anti-IL2Rγ monoclonal antibodies were determined using a Biacore 4000 instrument equipped with a real-time surface plasmon resonance biosensor. All binding studies were performed in 10 mM HEPES, 150 mM NaCl, 3 mM EDTA, and 0.05% v/v Surfactant Tween-20, pH 7.4 (HBS-ET) running buffer at 25° C. and 37° C. The Biacore sensor surface was first derivatized by amine coupling with a monoclonal mouse anti-human Fc antibody (GE, # BR-1008-39) to capture anti-IL2Rγ monoclonal antibodies.
(§3) The dissociation of monoclonal antibody bound IL2Rγ reagents were monitored for 8-10 minutes in HBS-ET running buffer. Kinetic association (kₐ) and dissociation (kd) rate constants were determined by fitting the real-time sensorgrams to a 1:1 binding model using Scrubber 2.0c curve fitting software. Binding dissociation equilibrium constants (KD) and dissociative half-lives (t_{1/2}) were calculated from the kinetic rate constants as: […]

[5] = target: T4, Human IL2Rγ extracellular domain expressed with a C-terminal mouse IgG2a Fc tag (human); test: SPR Biacore 4000, anti-hFc-captured mAb, 37 C
T4 construct: whole entry is the Fc-fused construct; also called hIL-2Rg-mFc
T4 chain: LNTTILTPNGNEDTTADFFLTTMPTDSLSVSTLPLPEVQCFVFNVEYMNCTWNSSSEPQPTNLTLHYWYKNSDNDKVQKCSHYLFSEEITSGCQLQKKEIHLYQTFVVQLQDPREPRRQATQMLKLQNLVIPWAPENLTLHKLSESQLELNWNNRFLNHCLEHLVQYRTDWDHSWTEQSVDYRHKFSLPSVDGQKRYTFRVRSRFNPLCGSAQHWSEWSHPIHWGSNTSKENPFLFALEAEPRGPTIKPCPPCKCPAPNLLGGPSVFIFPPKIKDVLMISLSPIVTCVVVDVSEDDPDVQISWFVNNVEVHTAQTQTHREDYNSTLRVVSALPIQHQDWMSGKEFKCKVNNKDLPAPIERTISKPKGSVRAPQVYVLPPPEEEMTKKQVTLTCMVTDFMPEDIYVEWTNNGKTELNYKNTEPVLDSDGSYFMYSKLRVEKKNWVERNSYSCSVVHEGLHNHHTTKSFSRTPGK
Method: as §2, §3

[6] = target: T5, Rat IL2Rγ extracellular domain expressed with a C-terminal myc-myc-hexahistidine tag (rat); test: SPR Biacore 4000, anti-hFc-captured mAb, 37 C
T5 construct: whole entry is the tagged construct; also called rIL-2Rg-MMH; rat IL-2Rg-MMH
T5 chain: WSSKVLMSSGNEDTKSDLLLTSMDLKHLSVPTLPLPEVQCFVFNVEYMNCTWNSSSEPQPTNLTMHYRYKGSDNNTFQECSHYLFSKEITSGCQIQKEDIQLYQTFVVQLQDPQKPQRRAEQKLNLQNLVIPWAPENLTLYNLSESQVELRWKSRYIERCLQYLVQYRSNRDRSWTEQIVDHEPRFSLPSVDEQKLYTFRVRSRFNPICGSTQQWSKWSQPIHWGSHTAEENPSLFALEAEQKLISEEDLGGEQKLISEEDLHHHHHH
Method: as §2, §3

[7] = target: T6, Macaca fascicularis IL2Rγ extracellular domain expressed with a C-terminal myc-myc-hexahistidine tag (Macaca fascicularis); test: SPR Biacore 4000, anti-hFc-captured mAb, 37 C
T6 construct: whole entry is the tagged construct; also called mfIL-2Rg-MMH
T6 chain: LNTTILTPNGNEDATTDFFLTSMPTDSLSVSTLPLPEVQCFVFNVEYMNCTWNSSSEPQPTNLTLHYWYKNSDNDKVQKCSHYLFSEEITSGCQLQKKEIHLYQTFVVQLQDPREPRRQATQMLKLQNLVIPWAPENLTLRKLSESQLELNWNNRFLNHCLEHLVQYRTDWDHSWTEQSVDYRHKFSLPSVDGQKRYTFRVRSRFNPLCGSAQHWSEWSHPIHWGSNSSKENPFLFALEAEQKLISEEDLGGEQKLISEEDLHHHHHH
Method: as §2, §3

[8] = target: T3, Mouse IL2Rγ extracellular domain …; test: SPR Biacore 4000, anti-hFc-captured mAb, 25 C
Method: as §2, §3

[9] = target: T4, Human IL2Rγ extracellular domain …; test: SPR Biacore 4000, anti-hFc-captured mAb, 25 C
Method: as §2, §3

[10] = target: T5, Rat IL2Rγ extracellular domain …; test: SPR Biacore 4000, anti-hFc-captured mAb, 25 C
Method: as §2, §3

B1: H4H12863P (antibody, human IgG4 S228P, kappa, V domains shown)
VH: QVQLVESGGGVVQPGRSLRLSCTASGFTFRSYDMYWVRQAPGKGLEWVSVITYDGNNKYYADSVKGRFTISRDNSKNTLFLQMSSLRPEDTAVYYCAKRGLIWVGESFDYWGQGTLVTVSS
VL: DIQMTQSPSTLSASVGDRVTITCRASQSINSWLAWYQQKPGKAPNLLIYKASSLESGVPSRFSGSGSGTEFTLTISSLQPDDFATYYCQQYKSYSWTFGQGTKVEIKR
notes: fully human anti-IL2Rg antibody, human IgG4
Binding Ratio (Sample over unstained MFIs) [1]: 87
Raw MFI [1]: 13000 MFI
Binding Ratio (Sample over unstained MFIs) [2]: 1
Raw MFI [2]: 185 MFI
Binding Ratio (Sample over unstained MFIs) [3]: 13
Raw MFI [3]: 1170 MFI

B2: H4H12858P (antibody, human IgG4 S228P, kappa, V domains shown)
VH: EVQLVESGGDLVQPGGSLRLSCTASGFIFRNYAMNWVRQAPGKGLEWLSGILGSNDNTYYVDSVKGRFTISRDNSRNTLYLQMNSLRAEDSAVYYCAKGDAGGFDYWGQGTLVTVSS
VL: DVVMTQSPLSLPVILGQPASISCRSSQSLVSSDGNTYLNWFQQRPGQSPRRLIYKVSNRDSGVPDRFSGSGSGTDFTLKISRVEAEDVGAYYCMQGSYWPPTFGQGTKLEIKR
notes: fully human anti-IL2Rg antibody, human IgG4; also called REGN9433
Binding Ratio (Sample over unstained MFIs) [1]: 2
Raw MFI [1]: 228 MFI
Binding Ratio (Sample over unstained MFIs) [2]: 1
Raw MFI [2]: 199 MFI
Binding Ratio (Sample over unstained MFIs) [3]: 1
Raw MFI [3]: 99 MFI

B5: H4H13541P (antibody, human IgG4 S228P, kappa, V domains shown)
VH: EVQLVESGGGVVRPGGSLRLSCAASGFIFDDYDMSWVRQPPGRGLEWVSGIDWFGGTRGYADSMKGRFTISRDNAKNSLYLQMNSLRVEDTAFYYCARGGAIVGAVTPFDYWGQGTLVTVSS
VL: DIQMTQSPSSLSASVGNRVTLSCRASQSINTYLSWYQQRPGKAPKLLIYAASSLQSGVPSRFSGSGAGTDFTLTISSLQPEDFATYYCQQSYSAPLTFGGGTKVEIKR
notes: fully human anti-IL2Rgamma mAb, human IgG4 Fc
100 nM Ag Bound [4]: 4 RU
50 nM Ag Bound [5]: 42 RU
Kd [5]: 2.18 nM
koff [5]: 0.000122 s⁻¹
kon [5]: 56000 M⁻¹ s⁻¹
t1/2 [5]: 94 min
100 nM Ag Bound [6]: 5 RU
100 nM Ag Bound [7]: 111 RU
Kd [7]: 7.1 nM
koff [7]: 0.000755 s⁻¹
kon [7]: 106000 M⁻¹ s⁻¹
t1/2 [7]: 15 min
100 nM Ag Bound [8]: 5 RU
binding result [8]: no binding (tested: 100 nM)
50 nM Ag Bound [9]: 24 RU
Kd [9]: 1.8 nM
koff [9]: 8.84e-05 s⁻¹
kon [9]: 49200 M⁻¹ s⁻¹
t1/2 [9]: 131 min
100 nM Ag Bound [10]: 4 RU
binding result [10]: no binding (tested: 100 nM)

B6: H4H12859P (antibody, human IgG4 S228P, kappa, V domains shown)
VH: QVQLVQSGAEVKKPGASVRVSCKASGYTFTDYDIHWVRQAPGHGLEWMGWINPNSGGTNYAQKFQGRVTMTRDTSISTVYMDLSRLRSDDTAVYYCARADYSSSYYYYGMDVWGQGTTVTVSS
VL: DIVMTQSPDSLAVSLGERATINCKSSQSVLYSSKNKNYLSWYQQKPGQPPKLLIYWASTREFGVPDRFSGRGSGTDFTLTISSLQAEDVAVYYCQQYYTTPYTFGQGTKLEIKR
notes: as for B1
Binding Ratio (Sample over unstained MFIs) [1]: 1
Raw MFI [1]: 176 MFI
Binding Ratio (Sample over unstained MFIs) [2]: 1
Raw MFI [2]: 201 MFI
Binding Ratio (Sample over unstained MFIs) [3]: 1
Raw MFI [3]: 89 MFI

Further lines, results first:

100 nM Ag Bound [4]: 2 RU
50 nM Ag Bound [5]: 59 RU
Kd [5]: 30 nM
koff [5]: 0.00737 s⁻¹
kon [5]: 246000 M⁻¹ s⁻¹
t1/2 [5]: 1.6 min
100 nM Ag Bound [6]: 3 RU
100 nM Ag Bound [7]: 21 RU
Kd [7]: 88.6 nM
koff [7]: 0.0129 s⁻¹
kon [7]: 146000 M⁻¹ s⁻¹
t1/2 [7]: 0.9 min
100 nM Ag Bound [8]: 4 RU
binding result [8]: no binding (tested: 100 nM)
50 nM Ag Bound [9]: 64 RU
Kd [9]: 12 nM
koff [9]: 0.00211 s⁻¹
kon [9]: 175000 M⁻¹ s⁻¹
t1/2 [9]: 5 min
100 nM Ag Bound [10]: 4 RU
binding result [10]: no binding (tested: 100 nM)
B3: H4H13545P2 (antibody, human IgG4 S228P, kappa, V domains shown)
VH: QVQLQQSGPGLVKPSQTLSLTCDISGDSVSSNIATWNWIRQSPSRGLEWLGRTYYRSKWYKDYAVSVKSRITINPDTSKNQFSLQVNSVTPEDTAVYYCARMTGPRYYFEYWGQGTLVTVSS
VL: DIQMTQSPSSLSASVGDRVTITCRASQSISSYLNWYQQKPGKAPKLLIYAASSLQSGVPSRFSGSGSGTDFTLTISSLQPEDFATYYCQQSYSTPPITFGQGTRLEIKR
notes: as for B5

100 nM Ag Bound [4]: 4 RU
50 nM Ag Bound [5]: 88 RU
Kd [5]: 6.33 nM
koff [5]: 0.000801 s⁻¹
kon [5]: 126000 M⁻¹ s⁻¹
t1/2 [5]: 14 min
100 nM Ag Bound [6]: 4 RU
100 nM Ag Bound [7]: 60 RU
Kd [7]: 52.1 nM
koff [7]: 0.00612 s⁻¹
kon [7]: 118000 M⁻¹ s⁻¹
t1/2 [7]: 1.9 min
100 nM Ag Bound [8]: 3 RU
binding result [8]: no binding (tested: 100 nM)
50 nM Ag Bound [9]: 63 RU
Kd [9]: 2.21 nM
koff [9]: 0.000246 s⁻¹
kon [9]: 111000 M⁻¹ s⁻¹
t1/2 [9]: 47 min
100 nM Ag Bound [10]: 3 RU
binding result [10]: no binding (tested: 100 nM)
B4: H4H13544P2 (antibody, human IgG4 S228P, kappa, V domains shown)
VH: QLQLQESGPGLVKPSETLSLTCTVSGGSISIKNYYWGWIRQPPGKGLEWIGSIYYSGTTYYNPSLKSRVTISVDTSKNQFSLKLSSVTAADTAVYHCARHGYSYGHGWFDPWGQGTLVTVSS
VL: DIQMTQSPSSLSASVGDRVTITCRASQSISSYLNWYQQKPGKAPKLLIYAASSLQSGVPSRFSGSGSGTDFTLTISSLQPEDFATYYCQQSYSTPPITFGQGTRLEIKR
notes: as for B5
